This note sets out measurements from publication PMC10011331, “Vitamin C transporter SVCT1 serves a physiological role as a urate importer: functional analyses and in vivo investigations” (Pflugers Archiv, 2023).

In series [1] the test system is T1, O=c1[nH]c(=O)c2[nH]c(=O)[nH]c2[nH]1.
T1 construct: full-length human SVCT1 WT, EGFP fusion (pEGFP-N1)
As to the kind of experiment: cells, lysate or membranes. The series is classed as cell-based, Homo sapiens. Conditions: Na+ urate and vitamin C could compete for SVCT1-mediated transport.

Series [2] concerns T2, O=c1[nH]c(=O)c2[nH]c(=O)[nH]c2[nH]1.
T2 construct: mouse Svct1 WT, EGFP fusion
As to the kind of experiment: cells, lysate or membranes. It is filed as cell-based, Mus musculus. The following applies: Na+.

For orientation: Km means the concentration of substrate that gives half-maximal velocity. As to SVCT1 (Homo sapiens), the Km in series [1] is 1511 µM.
With Svct1 (Mus musculus), in series [2], the Km stood at 646.9 µM.
